In patent publication US20240052047A1 (Pfizer, published 2024):

Target: human IL27 receptor (IL27RA/gp130 heterodimer) on human cells (human, UniProt Q6UWB1 33-636; P40189 23-918)
Test: cell-based or functional assay

Chain of human IL27 receptor (IL27RA/gp130 heterodimer) on human cells (Q6UWB1 33-636 limits assumed, chain 1 of 2): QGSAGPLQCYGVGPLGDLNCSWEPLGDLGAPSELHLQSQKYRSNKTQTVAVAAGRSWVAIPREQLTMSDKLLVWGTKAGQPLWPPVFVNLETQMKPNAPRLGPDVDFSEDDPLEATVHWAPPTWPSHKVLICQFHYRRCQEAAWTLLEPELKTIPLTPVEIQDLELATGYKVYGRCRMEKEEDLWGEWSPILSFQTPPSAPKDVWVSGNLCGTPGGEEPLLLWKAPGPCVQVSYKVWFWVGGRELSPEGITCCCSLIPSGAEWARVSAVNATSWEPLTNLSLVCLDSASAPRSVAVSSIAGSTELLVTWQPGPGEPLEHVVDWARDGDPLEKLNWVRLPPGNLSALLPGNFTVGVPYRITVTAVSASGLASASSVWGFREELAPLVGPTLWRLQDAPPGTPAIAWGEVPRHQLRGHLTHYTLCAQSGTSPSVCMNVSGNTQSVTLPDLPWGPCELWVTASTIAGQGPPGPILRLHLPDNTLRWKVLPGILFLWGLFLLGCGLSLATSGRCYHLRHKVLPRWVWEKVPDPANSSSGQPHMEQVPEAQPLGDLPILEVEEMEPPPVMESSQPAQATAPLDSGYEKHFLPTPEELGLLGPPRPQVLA
Chain of human IL27 receptor (IL27RA/gp130 heterodimer) on human cells (P40189 23-918 limits assumed, chain 2 of 2): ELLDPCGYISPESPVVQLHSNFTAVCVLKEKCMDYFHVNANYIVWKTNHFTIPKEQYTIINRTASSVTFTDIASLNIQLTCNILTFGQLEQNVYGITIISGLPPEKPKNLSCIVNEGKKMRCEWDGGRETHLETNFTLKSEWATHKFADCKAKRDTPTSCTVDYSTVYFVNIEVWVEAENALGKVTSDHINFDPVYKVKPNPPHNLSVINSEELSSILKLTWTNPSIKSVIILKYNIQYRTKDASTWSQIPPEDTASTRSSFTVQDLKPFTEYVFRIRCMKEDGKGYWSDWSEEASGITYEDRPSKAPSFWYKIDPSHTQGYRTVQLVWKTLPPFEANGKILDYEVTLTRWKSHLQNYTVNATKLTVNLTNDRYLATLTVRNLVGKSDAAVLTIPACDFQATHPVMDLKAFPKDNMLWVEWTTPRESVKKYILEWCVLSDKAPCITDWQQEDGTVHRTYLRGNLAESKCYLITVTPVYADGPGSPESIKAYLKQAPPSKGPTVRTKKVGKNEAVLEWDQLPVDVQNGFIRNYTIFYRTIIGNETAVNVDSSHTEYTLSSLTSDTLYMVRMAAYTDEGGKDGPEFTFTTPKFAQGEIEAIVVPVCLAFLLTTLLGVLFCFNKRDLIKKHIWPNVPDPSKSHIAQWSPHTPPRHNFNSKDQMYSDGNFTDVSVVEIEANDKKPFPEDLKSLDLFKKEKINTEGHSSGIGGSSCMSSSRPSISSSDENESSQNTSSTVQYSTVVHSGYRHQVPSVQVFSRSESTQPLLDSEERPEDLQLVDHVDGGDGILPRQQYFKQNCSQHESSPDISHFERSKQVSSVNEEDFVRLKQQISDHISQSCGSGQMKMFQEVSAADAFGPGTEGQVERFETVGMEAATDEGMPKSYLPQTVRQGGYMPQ

- IDO1 in CD14+ monocytes EC50: 15 pM
- PD-L1 in CD14+ monocytes EC50 (human whole blood): 6 pM
- pSTAT1 in CD3+ T cells EC50 (human whole blood): 0.233 nM
B1: GBT-IL-27R-4933 (KiH-mFd format IL27RA/gp130 bispecific antibody) (bispecific antibody, human IgG1, kappa)
chain 1: DIQMTQSPSSLSASVGDRVTITCRASQSVSSSYLAWYQQKPGKAPKLLIYGTESRATGVPSRFSGSGSGTDFTLTISSLQPEDFATYYCQQYGGYPTFGGGTKVEIKRTVAAPSVFIFPPSDEQLKSGTASVVCLLNNFYPREAKVQWKVDNALQSGNSQESVTEQDSKDSTYSLSSTLTLSKADYEKHKVYACEVTHQGLSSPVTKSFNRGECDKTHTCPPCPAPEAAGAPSVFLFPPKPKDTLMISRTPEVTCVVVDVSHEDPEVKFNWYVDGVEVHNAKTKPREEQYNSTYRVVSVLTVLHQDWLNGKEYKCKVSNKALPAPIEKTISKAKGQPREPQVYTLPPCREEMTKNQVSLSCAVKGFYPSDIAVEWESNGQPENNYKTTPPVLDSDGSFFLVSKLTVDKSRWQQGNVFSCSVMHEALHNHYTQKSLSLSPGK
chain 2: QVQLVQSGAEVKKPGSSVKVSCKVSGGSISSYYWSWVRQAPGQGLEWIGRIYITGNTNYNPSLKDRVTMTVDTSTSTHYMELSSLRSEDTAVYYCAREGPKLGIFDYWGQGTLVTVSSASTKGPSVFPLAPSSKSTSGGTAALGCLVKDYFPEPVTVSWNSGALTSGVHTFPAVLQSSGLYSLSSVVTVPSSSLGTQTYICNVNHKPSNTKVDKKVEPKSC
heavy: EVQLVESGGGLVQPGGSLRLSCAASGFTFEYFGLQWVRQAPGKGLEWIGYTSSGGNYEYYEETLKGRFTISRDNAKNSLYLQMNSLRAEDTAVYYCARTKTGDYWGQGTLVTVSSASTKGPSVFPLAPSSKSTSGGTAALGCLVKDYFPEPVTVSWNSGALTSGVHTFPAVLQSSGLYSLSSVVTVPSSSLGTQTYICNVNHKPSNTKVDKKVEPKSCDKTHTCPPCPAPEAAGAPSVFLFPPKPKDTLMISRTPEVTCVVVDVSHEDPEVKFNWYVDGVEVHNAKTKPREEQYNSTYRVVSVLTVLHQDWLNGKEYKCKVSNKALPAPIEKTISKAKGQPREPQVCTLPPSREEMTKNQVSLWCLVKGFYPSDIAVEWESNGQPENNYKTTPPVLDSDGSFFLYSKLTVDKSRWQQGNVFSCSVMHEALHNHYTQKSLSLSPGK
light: DIQMTQSPSSLSASVGDRVTITCRASQDIGNSLTWYQQKPGKAPKRVIFGATGLAAGVPSRFSGSGSGTDFTLTISSLQPEDFATYYCLQSKQYPYTFGQGTKLEIKRTVAAPSVFIFPPSDEQLKSGTASVVCLLNNFYPREAKVQWKVDNALQSGNSQESVTEQDSKDSTYSLSSTLTLSKADYEKHKVYACEVTHQGLSSPVTKSFNRGEC
